Measurements published in article PMC11408249, “Non-invasive in vivo imaging of changes in Collagen III turnover in myocardial fibrosis” (npj Imaging, 2024).
Values belong to the molecule of their own block, whether it stands above or below them. Residues, ends and D or L forms follow the SMILES beside them. No end group written: not given here. *: point of attachment. DOTA = O=C(O)CN1CCN(CC(=O)O)CCN(CC(=O)*)CCN(CC(=O)O)CC1

Tests used:
[1] = set-up: species or system mice; conditions: mouse, in vivo, iv
Procedure: Gallium-68 (^68Ga) was eluted from the generators onsite at the time of the experiments. Radiolabelling of the respective DOTAMA-CBP compound was performed as follows: DOTAMA-CBPs were dissolved in water (Baxter water for irrigation) to a final concentration 4 mg/mL. In an Eppendorf, 25 µL of the DOTAMA-CBP solution was added. Sodium acetate (30%NaOAc, 20 µL, pH 5) buffer was added to this solution followed by the addition of 200 µL ^68Ga (~100 MBq). The solution was then heated to 50 °C for 30 min. After the reaction was removed from heat, the pH was adjusted to pH 7 by adding sodium bicarbonate (1 M, 10 µL). Labelling efficiency was followed by radio thin-layer chromatography (TLC) and HPLC. Radio TLCs were performed using silica gel IBF-2 Baker plates, 10% NH4OAc 50:50 in MeOH with 5 µL of the sample added. For the HPLC, a C18 column was used (MeCN + 0.1% TFA and H2O + 0.1% TFA, gradient) with 10 µL of the sample measured.
In vivo biodistribution imaging was carried out using a positron emission tomography/computed tomography (PET/CT) scanner (NanoPET/CT scanner; Mediso, Hungary. Male apolipoprotein E knockout (ApoE^−/−) were anesthetised with 4% isoflurane mixed with 1% medical oxygen and maintained at 2% isoflurane for the PET/CT experiment. Mice were injected intravenously (i.v.) with either ^68Ga-DOTAMA-CBP1 or ^68Ga-DOTAMA-CBP2 (12MBq/mouse for both probes). To verify anatomical structures, CT images were obtained after the PET imaging with a 55 kVp voltage. PET images were acquired continuously up to 90 min post-injection with a 256 × 256 matrix size and a resolution of 1 mm/pixel. PET and CT images were reconstructed using the manufacturer software with a voxel size of 0.4 mm and analysed with a VivoQuant 2.5 software (Invicro, Boston, MA, USA). The data acquired with the CBP1 and CBP2 imaging probes were reconstructed in 15-minute bins up to 90 min. The PET/CT images were merged using the software’s automated fusion function. Additionally, the software was used for region-of-Interest (ROI) analysis and results were reported as %ID/g for each organ. Following the in vivo PET/CT imaging, the animals were euthanised and tissues extracted for ex vivo gamma counting (1282 CompuGamma gamma counting, LKB Wallac, Finland).

COL3 remodelling = assay: Enalapril treatment after myocardial infarction, read out by COL3 molecular CMR and cine MRI; assay type: in vivo, mice
COL3 = molecular target: T1, COL3 (Mus musculus, UniProt P08121); assay: In vivo MRI of the aortic wall in a murine model of vascular remodelling; conditions: ApoE−/− mice after aortic injury and 12 weeks high-fat diet, i.v. 0.2 mmol/kg, LGE MRI at 3 T up to 2 h post-injection
T1 construct: from tissue; host or cells: infarcted left-ventricular myocardium of female CD1 mice, in vivo
T1 sequence (P08121 155-1219 limits assumed): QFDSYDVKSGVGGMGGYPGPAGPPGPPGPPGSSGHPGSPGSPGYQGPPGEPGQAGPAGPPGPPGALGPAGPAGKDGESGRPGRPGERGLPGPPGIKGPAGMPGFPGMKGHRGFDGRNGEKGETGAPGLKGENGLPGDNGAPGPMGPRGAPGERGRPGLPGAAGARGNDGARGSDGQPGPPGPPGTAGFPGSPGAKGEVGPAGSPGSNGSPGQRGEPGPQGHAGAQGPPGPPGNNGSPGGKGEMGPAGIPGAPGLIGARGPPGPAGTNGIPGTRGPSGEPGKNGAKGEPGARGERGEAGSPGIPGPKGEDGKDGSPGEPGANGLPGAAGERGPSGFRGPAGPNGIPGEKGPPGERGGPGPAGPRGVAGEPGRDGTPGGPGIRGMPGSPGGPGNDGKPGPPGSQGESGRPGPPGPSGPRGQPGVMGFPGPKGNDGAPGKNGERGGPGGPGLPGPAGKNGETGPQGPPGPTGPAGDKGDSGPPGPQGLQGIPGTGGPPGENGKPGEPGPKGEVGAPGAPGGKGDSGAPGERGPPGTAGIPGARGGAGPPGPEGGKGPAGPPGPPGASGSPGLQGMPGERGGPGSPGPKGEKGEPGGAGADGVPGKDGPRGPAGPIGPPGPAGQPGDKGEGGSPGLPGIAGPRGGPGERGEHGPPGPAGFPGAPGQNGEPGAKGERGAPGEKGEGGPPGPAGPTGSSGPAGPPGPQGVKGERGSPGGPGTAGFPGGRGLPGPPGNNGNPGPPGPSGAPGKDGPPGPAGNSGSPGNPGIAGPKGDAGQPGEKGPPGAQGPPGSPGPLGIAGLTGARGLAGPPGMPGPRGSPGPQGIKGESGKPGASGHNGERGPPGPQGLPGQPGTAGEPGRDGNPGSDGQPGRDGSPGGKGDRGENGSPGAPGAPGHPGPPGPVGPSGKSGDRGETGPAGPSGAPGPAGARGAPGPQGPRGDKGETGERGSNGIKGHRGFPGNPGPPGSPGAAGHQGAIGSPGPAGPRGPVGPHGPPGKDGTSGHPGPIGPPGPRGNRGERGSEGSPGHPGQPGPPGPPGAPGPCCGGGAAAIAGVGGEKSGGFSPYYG
Excerpt: Male ApoE^−/− mice were bred in-house and underwent surgery at 8–10 weeks of age (n = 6). Mice were anesthetised with 4% isoflurane mixed with 1% medical oxygen and anaesthesia was maintained at 2% during the surgery as previously reported. Briefly, mice underwent a laparotomy to expose the abdominal aorta, renal and iliac arteries. Two ligatures were inserted around the aorta (surgical silk, size 4–0, Aragó, Zaragoza, Spain), the first below the renal arteries and the second above the iliac bifurcation. A 30 G needle was introduced into the abdominal aorta at the level of the iliac bifurcation, via an aortic puncture. 1 mL of saline was infused into the aorta in three boluses. Finally, the needle was removed, and the puncture was repaired. The muscle and skin incisions were sutured (5-0 Vicryl, Ethicon Inc, Somerville, NJ), and the animals were allowed to recover. Mice were switched to a high-fat diet (HFD) containing 21% fat from lard and 0.15% (wt/wt) cholesterol (Special Diets Services, Witham, United Kingdom), on day 2 post-surgery for 12 weeks prior to the imaging experiments.
Anaesthesia was induced with 4% and maintained with 1–2% isoflurane during the MRI experiments. Mice (n = 3 per group) were placed supine on a single-loop surface coil (diameter = 47 mm) and the abdominal aorta was imaged up to 2 h post-injection of the monomeric (i.v. 0.2 mmol/kg, 0.2 mmol/kg Gd), the next day with the corresponding tetrameric collagen-binding probe (i.v 0.2 mmol/kg, 0.8 mmol/kg Gd) and the 3rd day using the scrambled probes (n = 2–3 per probe; i.v. 0.2 mmol/kg). This timeline ensures complete washout of one probe from the tissue before the administration of another probe. […]

Collagen type III (COL3) = molecular target: T2, Collagen type III (COL3) (Homo sapiens, UniProt P02461); assay: Eu(III) time-resolved fluorescence plate assay
T2 chain: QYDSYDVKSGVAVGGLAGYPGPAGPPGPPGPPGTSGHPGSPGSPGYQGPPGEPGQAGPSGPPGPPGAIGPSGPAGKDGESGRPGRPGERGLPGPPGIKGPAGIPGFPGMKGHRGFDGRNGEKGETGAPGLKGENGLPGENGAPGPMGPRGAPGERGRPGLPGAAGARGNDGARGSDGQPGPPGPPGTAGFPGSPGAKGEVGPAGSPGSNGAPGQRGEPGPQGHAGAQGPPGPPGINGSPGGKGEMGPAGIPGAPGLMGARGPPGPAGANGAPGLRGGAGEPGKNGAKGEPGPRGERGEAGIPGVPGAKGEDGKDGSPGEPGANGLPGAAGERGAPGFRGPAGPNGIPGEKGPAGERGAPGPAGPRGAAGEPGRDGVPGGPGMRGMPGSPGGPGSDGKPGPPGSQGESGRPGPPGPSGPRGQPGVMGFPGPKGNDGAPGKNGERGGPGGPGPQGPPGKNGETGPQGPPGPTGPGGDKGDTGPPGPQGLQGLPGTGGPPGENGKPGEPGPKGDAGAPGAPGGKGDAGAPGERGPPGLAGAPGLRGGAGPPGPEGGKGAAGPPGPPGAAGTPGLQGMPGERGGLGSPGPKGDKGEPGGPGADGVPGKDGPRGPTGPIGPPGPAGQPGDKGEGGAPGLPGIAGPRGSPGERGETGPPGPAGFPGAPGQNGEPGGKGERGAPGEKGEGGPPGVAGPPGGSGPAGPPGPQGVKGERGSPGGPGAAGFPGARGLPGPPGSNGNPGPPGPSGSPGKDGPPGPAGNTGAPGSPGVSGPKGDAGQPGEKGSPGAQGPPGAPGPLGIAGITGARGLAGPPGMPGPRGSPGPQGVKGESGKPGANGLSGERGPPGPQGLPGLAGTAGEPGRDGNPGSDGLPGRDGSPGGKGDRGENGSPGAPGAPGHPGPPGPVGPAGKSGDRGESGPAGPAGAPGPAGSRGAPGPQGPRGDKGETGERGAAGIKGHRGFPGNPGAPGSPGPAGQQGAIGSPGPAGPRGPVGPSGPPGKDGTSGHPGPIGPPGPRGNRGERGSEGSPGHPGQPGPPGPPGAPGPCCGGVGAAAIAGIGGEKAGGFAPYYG

Molecule: CSCC[C@H](NC(=O)[C@H](CCCNC(=N)N)NC(=O)[C@H](CC(C)C)NC(=O)[C@@H]1CCCN1C(=O)[C@H](Cc1ccccc1)NC(=O)[C@H](CCC(=O)O)NC(=O)[C@@H](NC(=O)CN1CCN(CC(=O)O)CCN(CC(=O)O)CCN(CC(=O)O)CC1)[C@@H](C)O)C(=O)N[C@@H](CCCNC(=N)N)C(=O)N[C@@H](CC(=O)O)C(=O)N[C@@H](Cc1c[nH]c2ccccc12)C(=O)N[C@@H](CC(C)C)C(=O)N[C@@H](CCCCN)C(=O)N[C@@H](CC(N)=O)C(=O)O [^68Ga-DOTAMA-CBP2, metal not drawn] ({DOTA}-TEFPLRMRDWLKN-OH)
route of elimination (in words) [1]: renal excretion
time within which most of the probe is eliminated from the blood (first phase clearance) [1]: 15 to 30 min
unspecific uptake in tissues (in words) [1]: no significant unspecific uptake in tissues

Molecule: CCOC(=O)[C@H](CCc1ccccc1)N[C@@H](C)C(=O)N1CCC[C@H]1C(=O)O [enalapril]
volume of signal enhancement (LGE volume) at day 21 versus untreated mice (in words) (COL3 remodelling; enalapril 20 mg/kg/day in drinking water after MI, imaged with [Gd-DOTAMA]4-CBP1, n = 7 per group): significantly higher volume of signal enhancement
cardiac geometry and function versus untreated mice (in words) (COL3 remodelling; enalapril 20 mg/kg/day in drinking water, cine MRI, days 10 and 21 post-MI): no significant differences

Molecule: CC(C)[C@H](NC(=O)[C@H](CCC(=O)O)NC(=O)[C@H](CO)NC(=O)[C@H](CCCCN)NC(=O)[C@H](CCCNC(=N)N)NC(=O)[C@H](C)NC(=O)[C@H](CC(=O)O)NC(=O)CN1CCN(CC(=O)O)CCN(CC(=O)O)CCN(CC(=O)O)CC1)C(=O)N[C@@H](CCC(N)=O)C(=O)N[C@@H](CCCCN)C(=O)O [^68Ga-DOTAMA-CBP1, metal not drawn] ({DOTA}-DARKSEVQK-OH)
route of elimination (in words) [1]: renal excretion
time within which most of the probe is eliminated from the blood (first phase clearance) [1]: 15 to 30 min
unspecific uptake in tissues (in words) [1]: no significant unspecific uptake in tissues

Molecule: Ac-C-EWFMKDRLLNRPT [[Gd-DOTAMA]4-SccCBP2, scrambled tetrameric Gd probe (Ac-C-…), negative control]
signal enhancement of the remodelled aortic wall (in words) (COL3): also showed signal enhancement

Kd (Collagen type III (COL3)): 5.3 µM
Molecule: DARKSEVQK (not fully specified (N-terminus); also: Eu complexed by N-terminal DOTAMA) [Eu-DOTAMA-CBP1]

Kd (Collagen type III (COL3)): 4.8 µM
Molecule: TEFPLRMRDWLKN (not fully specified (N-terminus); also: Eu complexed by N-terminal DOTAMA) [Eu-DOTAMA-CBP2]
